Experimental data taken from PMC4195752, “The Structure of an LIM-Only Protein 4 (LMO4) and Deformed Epidermal Autoregulatory Factor-1 (DEAF1) Complex Reveals a Common Mode of Binding to LMO4” (PLoS ONE, 2014).

Biological target: T1, LMO4 second LIM domain, residues 77-147 (in the tethered complex) (mouse, UniProt P61969 77-147)
T1 construct: LMO4, mouse, LIM2 domain, residues 77-147; also called LMO4_(LIM2); LMO4_(77–147)
T1 sequence (looked up): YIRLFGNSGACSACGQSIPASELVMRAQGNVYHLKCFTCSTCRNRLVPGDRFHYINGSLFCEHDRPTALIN
Assay: NMR solution structure; the two domains tethered on one chain by a glycine-serine linker; 20 mM sodium acetate pH 5.0, 35 mM NaCl, 0.5 mM TCEP-HCl
Conditions: both partners purified

- binding result: binds
B1: DEAF1 residues 404-418 (in the tethered complex) (peptide, UniProt Q9Z1T5-1 404-418, looked up)
chain: IAPFPEAALPTSHPK
notes: Stood in the assay joined through a glycine-serine linker to the C-terminus of LMO4 77-147 on one chain; also called the DEAF1 peptide
